According to patent US20220296726A1 (Bicycle, published 2022):
*1 amine or outer side, *2 acyl side, *3 side chain or, on linkers, in order; H or OH if unused. Bridges are numbered along the chain shown (N, C = ends). Where no end group is shown, it is not given here. [ ]: non-standard residue; d: D form. The star is where a group is joined. TATA = O=C(CC[*:1])N1CN(C(=O)CC[*:2])CN(C(=O)CC[*:3])C1; 1Nal = N[C@@H](Cc1cccc2ccccc12)C(=O)O; 2Nal = N[C@@H](Cc1ccc2ccccc2c1)C(=O)O; hPhe = N[C@@H](CCc1ccccc1)C(=O)O; NMeA = CN[C@@H](C)C(=O)O; Pent4ynoyl = C#CCCC(=O)*

B1: BCY20052 (peptide)
peptide: CSEYCXWPFYHC
modifications: N-terminal acetyl (Ac); CiSEYCii[3FPhe]WPFYHCiii; Ci, Cii, Ciii on TATA scaffold
B2: BCY19766 (peptide)
peptide: ACSYYCFWPFQSCA-NH2
modifications: linker 2-6-13 via TATA; N-terminus assumed
SMILES: C[C@H](N)C(=O)N[C@H]1CSCCC(=O)N2CN3CN(C2)C(=O)CCSC[C@H](NC(=O)[C@H](Cc2ccc(O)cc2)NC(=O)[C@H](Cc2ccc(O)cc2)NC(=O)[C@H](CO)NC1=O)C(=O)N[C@@H](Cc1ccccc1)C(=O)N[C@@H](Cc1c[nH]c2ccccc12)C(=O)N1CCC[C@H]1C(=O)N[C@@H](Cc1ccccc1)C(=O)N[C@@H](CCC(N)=O)C(=O)N[C@@H](CO)C(=O)N[C@H](C(=O)N[C@@H](C)C(N)=O)CSCCC3=O
B3: BCY19768 (peptide)
peptide: ACTSYCFWPFYQCA-NH2
modifications: linker 2-6-13 via TATA; N-terminus assumed
SMILES: C[C@H](N)C(=O)N[C@H]1CSCCC(=O)N2CN3CN(C2)C(=O)CCSC[C@H](NC(=O)[C@H](Cc2ccc(O)cc2)NC(=O)[C@H](CO)NC(=O)[C@H]([C@@H](C)O)NC1=O)C(=O)N[C@@H](Cc1ccccc1)C(=O)N[C@@H](Cc1c[nH]c2ccccc12)C(=O)N1CCC[C@H]1C(=O)N[C@@H](Cc1ccccc1)C(=O)N[C@@H](Cc1ccc(O)cc1)C(=O)N[C@@H](CCC(N)=O)C(=O)N[C@H](C(=O)N[C@@H](C)C(N)=O)CSCCC3=O
B4: BCY20059 (peptide)
peptide: CSEYCFXPFYHC
modifications: N-terminal acetyl (Ac); CiSEYCiiF[Trp(Me)]PFYHCiii; Ci, Cii, Ciii on TATA scaffold
B5: BCY20053 (peptide)
peptide: CSEYCXWPFYHC
modifications: N-terminal acetyl (Ac); CiSEYCii[4FPhe]WPFYHCiii; Ci, Cii, Ciii on TATA scaffold
B6: BCY19669 (peptide)
peptide: Ac-CSEYCF[1Nal]PFYHC-NH2
modifications: linker 1-5-12 via TATA
SMILES: CC(=O)N[C@H]1CSCCC(=O)N2CN3CN(C2)C(=O)CCSC[C@H](NC(=O)[C@H](Cc2ccc(O)cc2)NC(=O)[C@H](CCC(=O)O)NC(=O)[C@H](CO)NC1=O)C(=O)N[C@@H](Cc1ccccc1)C(=O)N[C@@H](Cc1cccc2ccccc12)C(=O)N1CCC[C@H]1C(=O)N[C@@H](Cc1ccccc1)C(=O)N[C@@H](Cc1ccc(O)cc1)C(=O)N[C@@H](Cc1c[nH]cn1)C(=O)N[C@H](C(N)=O)CSCCC3=O
B7: BCY19671 (peptide)
peptide: CSEYCFXPFYHC
modifications: N-terminal acetyl (Ac); CiSEYCiiF[6ClTrp]PFYHCiii; Ci, Cii, Ciii on TATA scaffold

These binders were tested against T1, Human TREM2 extracellular domain (ECD), residues 19-131, C-terminally biotinylated, deglycosylated (human, UniProt Q9NZC2 19-131, C-terminally biotinylated; deglycosylated) (assay: BLI steady state, deglycosylated human TREM2 ECD on sensor).
T1 construct: range 19-131; loaded on Superstreptavidin biosensors; also called triggering receptor expressed on myeloid cells 2; Human BLI (deglycosylated)
T1 sequence (looked up): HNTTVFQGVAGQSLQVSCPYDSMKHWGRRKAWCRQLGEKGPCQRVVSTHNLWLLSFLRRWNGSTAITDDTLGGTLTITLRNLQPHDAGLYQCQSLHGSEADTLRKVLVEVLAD
Method: (§1) Bio-layer interferometry was performed on an Octet RED384® system (Sartorius) at 25° C. in a buffer containing 50 mM HEPES (pH 7.5), 150 mM NaCl and 0.1% Tween. […] Reference wells containing no bicycle peptides and reference sensors loaded with an unrelated protein (His-tagged MLLT3a) were subjected to the same assay protocol and double reference subtraction was used for processing to account for non-specific binding. Traces were analysed using Octet Software (Version 11.0). Association and dissociation curves were globally fit and the response at equilibrium (Req) plotted against concentration to obtain steady-state KD values.
With ACTNYCFWPFQSCA (linker 2-6-13 via TATA) [BCY19780] the Kd was 2400 nM.
In the case of ACTNYCFWPFWSCA (linker 2-6-13 via TATA) [BCY19769], the Kd is reported as 920 nM.
ACTNYCFWPFYSCA (linker 2-6-13 via TATA) [BCY19781] was tested, and the Kd was 1400 nM.
Work on ACTNYCFWPFQYCA (linker 2-6-13 via TATA) [BCY19779] yielded a Kd of 920 nM.
For ACTNYCFWPFYLCA (linker 2-6-13 via TATA) [BCY19782], the Kd was 1400 nM.
CSEYCFWPXYHC (N-terminal acetyl (Ac); CiSEYCiiFWP[HPhe]YHCiii; Ci, Cii, Ciii on TATA scaffold) [BCY19667] was tested, and the Kd was 430 nM.
B1 gave a Kd of 4880 nM.
In the case of Ac-CSEYCFW[NMeA]FYAC (linker 1-5-12 via TATA) [BCY19303], the Kd is reported as 2300 nM.
Binder ACSYYCFWPFQYCA (linker 2-6-13 via TATA) [BCY19767] has a Kd of 550 nM.
Binder ACSEYCFWPFQYCA (linker 2-6-13 via TATA) [BCY19784] has a Kd of 450 nM.
ACSEYCFWPFQWCA (linker 2-6-13 via TATA) [BCY19771] was tested, and the Kd was 5700 nM.
With B2 the Kd was 1000 nM.
In the case of CSEYCFWPXYHC (N-terminal acetyl (Ac); CiSEYCiiFWP[1Nal]YHCiii; Ci, Cii, Ciii on TATA scaffold) [BCY19668], the Kd is reported as 240 nM.
B3 gave a Kd of 900 nM.
In the case of ACSNYCFWPFWQCA (linker 2-6-13 via TATA) [BCY19770], the Kd is reported as 1800 nM.
For ACSNYCFWPFFQCA (linker 2-6-13 via TATA) [BCY19772], the Kd was 960 nM.
With ACSEYCFWPFFLCA (linker 2-6-13 via TATA) [BCY19776] the Kd was 750 nM.
ACSEYCFWPFWQCA (linker 2-6-13 via TATA) [BCY19778] gave a Kd of 3600 nM.
In the case of CSEYCFWPFXHC (N-terminal acetyl (Ac); CiSEYCiiFWPF[1Nal]HCiii; Ci, Cii, Ciii on TATA scaffold) [BCY20081], the Kd is reported as 1060 nM.
For CSEYCXWPFYHC (N-terminal acetyl (Ac); CiSEYCii[1Nal]WPFYHCiii; Ci, Cii, Ciii on TATA scaffold) [BCY20054], the Kd was 2540 nM.
With Ac-CSEYCFWPFYAC (linker 1-5-12 via TATA) [BCY19293] the Kd was 970 nM.
B4 gave a Kd of 1810 nM.
In the case of ACTNYCFWPFAVCA (linker 2-6-13 via TATA) [BCY19783], the Kd is reported as 2700 nM.
B5 showed a Kd of 2010 nM.
B6 gave a Kd of 2000 nM.
Work on Ac-CSEYCF[1Nal]PFYAC (linker 1-5-12 via TATA) [BCY19294] yielded a Kd of 1500 nM.
In the case of Ac-CSEYCF[2Nal]PFYAC (linker 1-5-12 via TATA) [BCY19296], the Kd is reported as 2700 nM.
With B7 the Kd was 1000 nM.
Binder Ac-CSEYCF[1Nal]P[hPhe]YHC (linker 1-5-12 via TATA) [BCY19672] has a Kd of 2800 nM.
Work on K(Pent4ynoyl)CSEYCFWPFYHC (linker 2-6-13 via TATA) [BCY20042] yielded a Kd of 1190 nM.

These binders were tested against T2, Human TREM2 extracellular domain (ECD), residues 19-131, C-terminally biotinylated, glycosylated (human, UniProt Q9NZC2 19-131, C-terminally biotinylated; glycosylated) (assay: BLI steady state, glycosylated human TREM2 ECD on sensor).
T2 construct: range 19-131; loaded on Superstreptavidin biosensors; also called Human BLI glycosylated
T2 sequence (looked up): T1 sequence (looked up)
Method: as §1
B1 was tested, and the Kd was 1250 nM.
For CSEYCFWPXYHC (N-terminal acetyl (Ac); CiSEYCiiFWP[2Nal]YHCiii; Ci, Cii, Ciii on TATA scaffold) [BCY20076], the Kd was 1290 nM.
CSEYCXWPFYHC (N-terminal acetyl (Ac); CiSEYCii[1Nal]WPFYHCiii; Ci, Cii, Ciii on TATA scaffold) [BCY20054] gave a Kd of 1830 nM.
Work on Ac-CSEYCFWPFWHC (linker 1-5-12 via TATA) [BCY20077] yielded a Kd of 750 nM.
B4 gave a Kd of 1500 nM.
With B5 the Kd was 1710 nM.
Work on K(Pent4ynoyl)CSEYCFWPFYHC (linker 2-6-13 via TATA) [BCY20042] yielded a Kd of 1350 nM.

The binders below were run against T3, TREM2 on human iPSC macrophages (human, UniProt Q9NZC2 19-230) (assay: cell-based or functional assay).
T3 sequence (looked up): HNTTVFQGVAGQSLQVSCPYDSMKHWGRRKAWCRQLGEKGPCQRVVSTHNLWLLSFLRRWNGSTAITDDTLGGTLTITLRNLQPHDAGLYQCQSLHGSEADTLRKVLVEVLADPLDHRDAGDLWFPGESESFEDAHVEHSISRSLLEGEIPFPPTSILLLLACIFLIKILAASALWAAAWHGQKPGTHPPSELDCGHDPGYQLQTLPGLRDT
ACTNYCFWPFQSCA (linker 2-6-13 via TATA) [BCY19780] was tested, and the “pSYK (µM)” value was 12.6 µM.
For ACTNYCFWPFWSCA (linker 2-6-13 via TATA) [BCY19769], the “pSYK (µM)” value was 0.2 µM.
In the case of ACTNYCFWPFYSCA (linker 2-6-13 via TATA) [BCY19781], the “pSYK (µM)” value is reported as 34.1 µM.
With ACTNYCFWPFQYCA (linker 2-6-13 via TATA) [BCY19779] the “pSYK (µM)” value was 2.5 µM.
For ACTNYCFWPFYLCA (linker 2-6-13 via TATA) [BCY19782], the “pSYK (µM)” value was 3.8 µM.
With CSEYCFWPXYHC (N-terminal acetyl (Ac); CiSEYCiiFWP[HPhe]YHCiii; Ci, Cii, Ciii on TATA scaffold) [BCY19667] the “pSYK (µM)” value was 7.4 µM.
For Ac-CSEYCFW[NMeA]FYAC (linker 1-5-12 via TATA) [BCY19303], the “pSYK (µM)” value was less than 3.4 µM.
In the case of ACSYYCFWPFQYCA (linker 2-6-13 via TATA) [BCY19767], the “pSYK (µM)” value is reported as 8.6 µM.
ACSEYCFWPFQYCA (linker 2-6-13 via TATA) [BCY19784] was tested, and the “pSYK (µM)” value was 1.8 µM.
In the case of ACSEYCFWPFQWCA (linker 2-6-13 via TATA) [BCY19771], the “pSYK (µM)” value is reported as 9.9 µM.
B2 was tested, and the “pSYK (µM)” value was 35.2 µM.
With CSEYCFWPXYHC (N-terminal acetyl (Ac); CiSEYCiiFWP[1Nal]YHCiii; Ci, Cii, Ciii on TATA scaffold) [BCY19668] the “pSYK (µM)” value was 12.7 µM.
With B3 the “pSYK (µM)” value was 7.8 µM.
For ACSNYCFWPFWQCA (linker 2-6-13 via TATA) [BCY19770], the “pSYK (µM)” value was 4.5 µM.
In the case of ACSNYCFWPFFQCA (linker 2-6-13 via TATA) [BCY19772], the “pSYK (µM)” value is reported as 13.9 µM.
ACSEYCFWPFFLCA (linker 2-6-13 via TATA) [BCY19776] was tested, and the “pSYK (µM)” value was 4.4 µM.
ACSEYCFWPFWQCA (linker 2-6-13 via TATA) [BCY19778] was tested, and the “pSYK (µM)” value was 4.6 µM.
In the case of Ac-CSEYCFWPFYAC (linker 1-5-12 via TATA) [BCY19293], the “pSYK (µM)” value is reported as 7.2 µM.
ACTNYCFWPFAVCA (linker 2-6-13 via TATA) [BCY19783] was tested, and the “pSYK (µM)” value was 4.2 µM.
B6 was tested, and the “pSYK (µM)” value was 16.6 µM.
In the case of Ac-CSEYCF[1Nal]PFYAC (linker 1-5-12 via TATA) [BCY19294], the “pSYK (µM)” value is reported as less than 3.4 µM.
In the case of Ac-CSEYCF[2Nal]PFYAC (linker 1-5-12 via TATA) [BCY19296], the “pSYK (µM)” value is reported as less than 3.4 µM.
With B7 the “pSYK (µM)” value was 154 µM.
For Ac-CSEYCF[1Nal]P[hPhe]YHC (linker 1-5-12 via TATA) [BCY19672], the “pSYK (µM)” value was 8.5 µM.
